The results in this text go back to publication PMC6007404 (Nucleic Acids Research, 2018).

Series [1] has as its target T1, MotA (Enterobacteria phage T4, UniProt P22915 1-211).
T1 sequence: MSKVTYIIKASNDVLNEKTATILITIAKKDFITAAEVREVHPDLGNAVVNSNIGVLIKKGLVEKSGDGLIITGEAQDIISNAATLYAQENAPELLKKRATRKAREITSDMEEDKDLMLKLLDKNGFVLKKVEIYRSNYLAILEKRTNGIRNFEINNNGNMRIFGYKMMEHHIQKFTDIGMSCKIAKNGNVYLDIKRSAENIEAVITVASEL
The series is described as follows: EMSA; steep curve, value uncertain; EMSA: 0.01 pmol 32P-DNA, 1.7 pmol MotA, native 12% PAGE in 1x TBE at 4 C, other conditions as in ref 14; SPR: biotin-DNA on neutravidin chip, buffer as in ref 2.

Series [2] addresses T1, MotA. The series is described as follows: competition; EMSA vs labeled N6; EMSA: 0.01 pmol 32P-DNA, 1.7 pmol MotA, native 12% PAGE in 1x TBE at 4 C, other conditions as in ref 14; SPR: biotin-DNA on neutravidin chip, buffer as in ref 2.
Another series addresses T2, MotAlinker/CTD (Enterobacteria phage T4, UniProt P22915 93-211).
T2 sequence: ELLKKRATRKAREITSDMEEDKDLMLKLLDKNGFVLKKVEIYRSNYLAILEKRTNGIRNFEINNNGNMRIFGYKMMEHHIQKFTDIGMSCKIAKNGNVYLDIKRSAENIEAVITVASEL
As to the kind of experiment: X-ray crystallography; cognate complexes A and C; further non-cognate copies B and D on the opposite face; 2.96 A; EMSA: 0.01 pmol 32P-DNA, 1.7 pmol MotA, native 12% PAGE in 1x TBE at 4 C, other conditions as in ref 14; SPR: biotin-DNA on neutravidin chip, buffer as in ref 2.

Series [3] deals with T1, MotA. The series is described as follows: EMSA; EMSA: 0.01 pmol 32P-DNA, 1.7 pmol MotA, native 12% PAGE in 1x TBE at 4 C, other conditions as in ref 14; SPR: biotin-DNA on neutravidin chip, buffer as in ref 2.
Series [4] deals with the molecule itself. The series is described as follows: crystal structure; MotA^linker/CTD mixed with 22 bp MotA box DNA at 1.15:1 DNA:protein; 23% PEG 8000, 0.12 M sodium acetate, 0.1 M sodium cacodylate pH 6.5, 3% glycerol; space group P6_(1), 2.96 Å; four protein copies and two DNA duplexes in the asymmetric unit.

B1: EMSA 19-mer GHMe/unmod (dsDNA)
DNA 1: AATTATTTGCTTTAGATTA
DNA 2: TAATCTAAAGCAAATAATT
modifications: beta-D-glucosyl-5-hydroxymethyl-dC at top C10
B1 returned a Kd with MotA [1] of around 20 nM.

B2: EMSA mutant competitor (dsDNA)
DNA 1: AATTATTATACTTAGATTA
DNA 2: TAATCTAAGTATAATAATT
As to B2, the binding result with MotA [2] is recorded as “no binding”.

B3: 22-mer MotA box DNA (crystal) (dsDNA)
DNA 1: GAAGCTTTGCTTAATAATCCAC
DNA 2: GTGGATTATTAAGCAAAGCTTC
Turning to B3, in the series with MotAlinker/CTD, the binding result is reported as “binds”.

B4: EMSA 19-mer unmodified (dsDNA)
DNA 1: AATTATTTGCTTTAGATTA
DNA 2: TAATCTAAAGCAAATAATT
In the series with MotA [3], B4 came in with an equilibrium dissociation constant (Kd) of around 140 nM.

B5: MotA^linker/CTD (C-terminal domain and linker region of MotA, amino acids 93-211) (domain or fragment, bacteriophage T4, UniProt P22915 93-211, looked up)
chain: ELLKKRATRKAREITSDMEEDKDLMLKLLDKNGFVLKKVEIYRSNYLAILEKRTNGIRNFEINNNGNMRIFGYKMMEHHIQKFTDIGMSCKIAKNGNVYLDIKRSAENIEAVITVASEL
Regarding B5, the binding result in series [4] was “binds”.
